Data reported in the DeepSol protein solubility set.

Assay: soluble on expression in E. coli; label from the status in PepcDB or PDB records

Sequence | soluble on expression in E. coli
MKYKIFASTTPQTEPVLQKLKQVLKGCEAVEKGFDYLFVLGGDGFFVSTVANYNCHNCRVVGINTGHLGFYTSFNEKDLDDNFLQKLQQCHFQRISLLEVSVNGQQHLVLNELAVYTNTAYPINIFIDGEAWEFYRGSGLLIGPRTGSTALAKSAKGAVIFPGIDVLQIIEMNPLLHPNQVTIQSPIILPKETQVEFVVKKAFNPQQFPTFYCDGRKLELPNADTTLALKLVQSTPMFNISLKTQDFINKLKSTFIKQSLEHHHHHH | not soluble
MGHHHHHHSHMTWKGGGGWMAAVTQGPGITWGSLLPSAVRQGEQKCKNTDVSIFLNWGVEGCLLTASKELTVEGPQCIPPLPESLSPLGPPGSQSSEETDPSCFNSCCCFSLWAGPGRGRAEQAPGGLQSQLDLAVSPAGSPADTGEVG | not soluble
MSLGKEAEMNYPTDEKNFFQILEEQLSYFKINKKIKEICIFIINNLDKKGYLELSKIEIKDILEVSNKELEEAFDIIHNLEPYGIGAYSLEECLKIQLKAKKIIEEKLSLFIDNYLYLLADKKYDLIKEKLNINDNILFSYIDIIKSLNPIPSRGYSVGKVRKIIPDVLVEIKKNEIFYEINRASIPQINVKDKIEDKYYKKINEIISCIEKRFETIDKIMKIIIREQKIFFTSQGKKINTLKISDIADKLNLSPSTVSRAVKEKYIKTNFGIISLRKLFNLDSAVFLYQQKILEYIENENKENPISDQDIVNLLEKDGIKIARRTVTKYREKLGYKSSHKRKKYEGHHHHHH | not soluble
GMAVECIKDKVTRYPERASYSDEDLVAMLDRNFTCTVSFIDGGIPYAIPMMLASEGKTIYLHGSMKSRIYGILKTGQLIAISLLEINGIVLAKEIKNNSINYVSALIFGRPYEIDDTEKKIEVFRLLTEKLVKGRWDNSIKPSYEDLNGVFVFAVKPETFSMKARTGPPHDTSTDDIWSGVLPIQHTISEAGENAPEYVKSLYGKRIFI | soluble
RPPLQEYVRKLLYKDLSKVTTEKVLRQMRKLPWQDQEVKDYVICCMINIWNVKYNSIHCVANLLAGLVLYQEDVGIHVVDGVLEDIRLGMEVNQPKFNQRRISSAKFLGELYNYRMVESAVIFRTLYSFTSFGVNPDGSPSSLDPPEHLFRIRLVCTILDTCGQYFDRGSSKRKLDCFLVYFQRYVWWKKSLEVWTKDHPFPIDIDYMISDTLELLRPKIKLCNSLEESIRQVQDLEREFLIKLGLVN | soluble
MSLETDDQYYRAIKKIKEAAEASNRAYLTSSKLADMLGISQQSASRIIIDLEKNGYITRTVTKRGQILNITEKGLDVLYTEFADLSRILAIKNNVVITGTVTSGMGEGRYYVARKQYIIQFQEKLGIIPYLGTLNIKVDQASLPELRKIRGFRGIHIEGFKTEDRTFGSVKAFPAKIQNIPCFVIMPERTVYTDVIEIISDKYLREEINLHDGDRVSVEVYTEGHHHHHH | soluble
RPQTTNSWQNSEIEGIDIMLAIDVSTSMLAEDLKPNRLEAAKDVAAEFINGRPNDNIGITLFAGESFTQCPLTVDHAVLLNLFQGIQCDIIEDGTAVGMGIANAVTRLKDSKAKSKVIILLTDGTNNKGDISPLTAAEIAKSFGIRVYTIGVGTNGMAPYPVRVGGTTQYINTPVEIDEKTLTQIAGTTDGNYFRATSNSKLKEVYEEI | not soluble
MGSDKIHHHHHHMPRNMPCPDNTMPSLSFWWRYPYLRVLVVVLLMTSQPCAISAQASTSPSVAQSSLRHLSDQLPIVGVWLTNSPSPLYYSRNLMHKAVKDLYSAGFTALYLNVWSRGSTFHRSNYAPVEGPLQKAGLALDPICTLSREGHARGMKVMPWFEYGLMEPDDAEVVKLHPDWVLARADGNPVVKMHGNHQRVWLNPAHPEVRARFIGVVIEVMKRCKMDGVQLDDHFAWPVKLGYDPYTVALYQQETGSSPPRDYSDRFWMQWRRRKLTGLLRELRQALEKEKLPVNISLAPGPFRFAYNNWLQDWELWTVGKLIDELVVQNYAYSLKGFAKDLDQPALRKAPQLGVPVHIGVLAGFGKRTTPMPILAEKVRMAAERGHGVIYFYWEGLWGQHAGIEGGIQRLRQFKQLHEKKN | not soluble
